Data reported in PMC11791182, “Molecular mechanism targeting condensin for chromosome condensation” (The EMBO Journal, 2024).

B1: GFP-Sgo1 (472-530) [S. cerevisiae] / Ycg1 (6–932, Δ499–555)-Brn1 (384–529) [S. cerevisiae] (parent complex)
chain 1: KNEKKLTSNNSPKKSSPLLDITNKSENKKKSTRTKKLFKNAIVNNLSDENSTTRPSKSS
chain 2: GIDINTKIFNSVAEVFQKAQGSYAGHRKHIAVLKKIQSKAVEQGYEDAFNFWFDKLVTKILPLKKNEIIGDRIVKLVAAFIASLERELILAKKQNYKLTNDEEGIFSRFVDQFIRHVLRGVESPDKNVRFRVLQLLAVIMDNIGEIDESLFNLLILSLNKRIYDREPTVRIQAVFCLTKFQDEEQTEHLTELSDNEENFEATRTLVASIQNDPSAEVRRAAMLNLINDNNTRPYILERARDVNIVNRRLVYSRILKSMGRKCFDDIEPHIFDQLIEWGLEDRELSVRNACKRLIAHDWLNALDGDLIELLEKLDVSRSSVCVKAIEALFQSRPDILSKIKFPESIWKDFTVEIAFLFRAIYLYCLDNNITEMLEENFPEASKLSEHLNHYILLRYHHNDISNDSQSHFDYNTLEFIIEQLSIAAERYDYSDEVGRRSMLTVVRNMLALTTLSEPLIKIGIRVMKSLSINEKDFVTMAIEIINDIRDDDIEKQESESDIINNLPPEKEASSATIVLCLTRSSYMLELVNTPLTENILIASLMDTLITPAVRNTAPNIRELGVKNLGLCCLLDVKLAIDNMYILGMCVSKGNASLKYIALQVIVDIFSVHGNTVVDGEGKVDSISLHKIFYKVLKNNGLPECQVIAAEGLCKLFLADVFTDDDLFETLVLSYFSPINSSNEALVQAFAFCIPVYCFSHPAHQQRMSRTAADILLRLCVLWDDLQSSVIPEVDREAMLKPNIIFQQLLFWTDPRNLVNQTGSTKKDTVQLTFLIDVLKIYAQIEKKEIKKMIITNINAIFLSSEQDYSTLKELLEYSDDIAENDNLDNVSKNALDKLRNNLNSLIEEINERSETQTKDENNTANDQYSSILGN
chain 3: SIFEKDLMAYFDENLNRNWRGREHWKVRNFKKANLVNKESDLLEETRTTIGDTTDKNTTDDKSMDTKKKHKQKKVLEIDFFKTDDSFEDKVFASKGRTKIDMPIKNRKNDTHYLLPDDFHFSTDRITRLFIKPGQKMSLFSHRKHT

Variants of: B1
Experiment: co-immunoprecipitation (anti-GFP-coupled beads), silver-stained SDS-PAGE band quantification; 25 mM HEPES pH 7.5, 500 mM NaCl, 10% glycerol, 1 mM DTT, 0.1% NP-40; 2.5 h incubation; parent: 1; read off a plot

ratio to parent	Variant
~0.66	chain 1 L46E
~0.84	chain 1 L37E, chain 1 F38E, chain 1 I42E, chain 1 V43E, chain 1 L46E

Further lines, the variant ahead of its results:

Variant	ratio to parent
chain 1 L37E, chain 1 F38E, chain 1 I42E, chain 1 V43E	~0.54
chain 1 L37E, chain 1 F38E	~0.37
chain 1 I42E, chain 1 V43E	~0.51
